# Test results: paper PMC11083199, “Cytokine Receptor-like Factor 1 (CRLF1) and Its Role in Osteochondral Repair” (Cells, 2024)
# B1: Cytokine receptor-like factor 1 (CRLF1) (natural protein, human, UniProt O75462 38-422, looked up)
# chain: AHTAVISPQDPTLLIGSSLLATCSVHGDPPGATAEGLYWTLNGRRLPPELSRVLNASTLALALANLNGSRQRSGDNLVCHARDGSILAGSCLYVGLPPEKPVNISCWSKNMKDLTCRWTPGAHGETFLHTNYSLKYKLRWYGQDNTCEEYHTVGPHSCHIPKDLALFTPYEIWVEATNRLGSARSDVLTLDILDVVTTDPPPDVHVSRVGGLEDQLSVRWVSPPALKDFLFQAKYQIRYRVEDSVDWKVVDDVSNQTSCRLAGLKPGTVYFVQVRCNPFGIYGSKKAGIWSEWSHPTAASTPRSERPGPGGGACEPRGGEPSSGPVRRELKQFLGWLKKHAYCSNLSFRLYDQWRAWMQKSHKTRNQDEGILPSGRRGTARGPAR
# notes: Cytokine receptor-like factor 1, human, full-length cDNA cloned into an AAV vector; released into the medium by BMSCs; Full-length cDNA was cloned into the backbone pENN.AAV.CB7.Cl.eGFP.WPRE.rBG (Addgene 105542 is the vector, not this construct); Bands: ~110 kDa non-reduced, 55 kDa reduced; also called CRLF1dim; CRLF1mon; source: human BMSCs transduced with AAV containing CRLF1, in conditioned …
# Biological target: the molecule itself
# Assay: non-reducing and reducing SDS gel electrophoresis with immunoblot; conditioned medium of BMSCs transduced with AAV-CRLF1; NuPAGE SDS sample buffer without and with reducing agent, 70 °C for 10 min, 10% bis-Tris gels; blotted with antibodies specific for CRLF1 or CLC
protein,measurement,value
B1,stoichiometry N,2
